The data set in a line: self-splicing fitness, log relative to wild type (ln ratio); higher = more splicing; Tetrahymena group I intron in knt gene, E. coli kanamycin selection, DiMSum; sequences stand for … in CUCUCU…GGAGGGAAAAGUUAUCAGGCAUGCACCUGGUAGCUAGUCUUUAAACCAAUAGAUUGCAUCGGUUUAAAAGGCAAGACCGUCAAAUUGCGGGAAAGGGGUCAACAGCCGUUCAGUACCAAGUCUCAGGGGAAACUUUGAGAUGGCCUUGCAAAGGGUAUGGUAAUAAGCUGACGGACAUGGUCCUAACCACGCAGCCAAGUCCUAAGUCAACAGAUCUUCUGUUGAUAUGGAUGCAGUUCACAGACUAAAUGUCGGUCGGGGAAGAUGUAUUCUUCUCAUAAGAUAUAGUCGGACCUCUCCUUAAUGGGAGCUAGCGGAUGAAGUGAUGCAACACUGGAGCCGCUGGGAACUAAUUUGUAUGCGAAAGUAUAUUGAUUAGUUUUGGAGUACUCGUGGUCG
The essentials: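 Colonies from six replicate transformations of E. coli BL21(DE3) were pooled and amplicon-sequenced on an Illumina HiSeq 2500. The library placed an intron with all eight P1ex-region nucleotides randomised inside the knt kanamycin-resistance gene on pET-22b(+), and cells grew overnight at 37°C or 30°C on LB agar with or without 25 μg/mL kanamycin (plus 100 μg/mL carbenicillin, 50 μM IPTG, 0.2% rhamnose). Fitness is the DiMSum error-weighted combination of wild-type-normalised replicate fold changes, kanamycin versus none.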

± gives the uncertainty stated by the source.

As to UCCCAGCAAUAUUACGUCGC, the “self-splicing fitness (ln)” value runs as follows: (30 °C) -3.47 ± 0.27; (37 °C) -2.4 ± 0.22.

On to UCCCAGCAAUAUUACGUUUU, for which the “self-splicing fitness (ln)” value is, setting by setting: (30 °C) -3.06 ± 0.11; (37 °C) -1.81 ± 0.15. Taken in the same sequence, the figures for UCCGAGCAAUAUUACGAACG were -1.82 ± 0.37 and -1.06 ± 0.22.

As to UCCGAGCAAUAUUACGAAGC, for the setting “37 °C”, the “self-splicing fitness (ln)” value was -1.15 ± 0.36.

Take UCCGAGCAAUAUUACGAAGU: where the note is “37 °C”, the “self-splicing fitness (ln)” value is -1.4 ± 0.29. Consider UCCGAGCAAUAUUACGACGA, for which the “self-splicing fitness (ln)” value is -0.666 ± 0.086 (30 °C) and 0.401 ± 0.11 (37 °C). Taken in the same sequence, the figures for UCCGAGCAAUAUUACGAGCA were -1.02 ± 0.1 and -0.767 ± 0.097. The matching figures for UCCGAGCAAUAUUACGAGCG: -3.16 ± 0.18 and -2.47 ± 0.24.

Take UCCGAGCAAUAUUACGAUCU: the “self-splicing fitness (ln)” value was -3.46 ± 0.35 (30 °C) and -2.61 ± 0.39 (37 °C). For the sequence UCCGAGCAAUAUUACGCGAA, the “self-splicing fitness (ln)” value by setting is: (30 °C) -2.94 ± 0.4; (37 °C) -1.84 ± 0.4. Taken in the same sequence, the figures for UCCGAGCAAUAUUACGCGCG were -2.28 ± 0.15 and -3.28 ± 0.43.

Turning to UCCGAGCAAUAUUACGCUUA, the “self-splicing fitness (ln)” value is -2.39 ± 0.41 (30 °C) and -2.47 ± 0.39 (37 °C). The matching figures for UCCGAGCAAUAUUACGGAUU: -3.52 ± 0.29 and -2.45 ± 0.26.

In the case of UCCGAGCAAUAUUACGGUCA, the “self-splicing fitness (ln)” value is -0.946 ± 0.067 (30 °C) and -0.671 ± 0.057 (37 °C).

Regarding UCCGAGCAAUAUUACGGUCG, the “self-splicing fitness (ln)” value is, setting by setting: (30 °C) -3.68 ± 0.47; (37 °C) -2 ± 0.45. Taken in the same sequence, the figures for UCCGAGCAAUAUUACGUAAU were -4.41 ± 0.28 and -1.88 ± 0.18. Taken in the same sequence, the figures for UCCGAGCAAUAUUACGUAGG were -2.69 ± 0.16 and -2 ± 0.25. As to UCCGAGCAAUAUUACGUAUG, the “self-splicing fitness (ln)” value (30 °C) was -2.36 ± 0.17 and the “self-splicing fitness (ln)” value (37 °C) was -2.67 ± 0.24.

Regarding UCCGAGCAAUAUUACGUCGG, the “self-splicing fitness (ln)” value (30 °C) is -2.97 ± 0.44 and the “self-splicing fitness (ln)” value (37 °C) was -1.86 ± 0.35. The matching figures for UCCGAGCAAUAUUACGUCGU: -2.21 ± 0.16 and -1.53 ± 0.18. Taken in the same sequence, the figures for UCCGAGCAAUAUUACGUGAU were -4.03 ± 0.4 and -1.91 ± 0.41. The matching figures for UCCGAGCAAUAUUACGUGGC: -3.27 ± 0.24 and -2.52 ± 0.33. Take UCCGAGCAAUAUUACGUUUU: the “self-splicing fitness (ln)” value by setting is: (30 °C) -3.83 ± 0.25; (37 °C) -0.687 ± 0.15. For UCCUAGCAAUAUUACGAAAA, the “self-splicing fitness (ln)” value (30 °C) is -2.7 ± 0.43. In the case of UCCUAGCAAUAUUACGAUUA, the “self-splicing fitness (ln)” value (37 °C) was -3.41 ± 0.46. With UCCUAGCAAUAUUACGCACC, the “self-splicing fitness (ln)” value is, setting by setting: (30 °C) -2.95 ± 0.32; (37 °C) -1.62 ± 0.25. As to UCCUAGCAAUAUUACGCAGG, the “self-splicing fitness (ln)” value runs as follows: (30 °C) -1.8 ± 0.46; (37 °C) -2.88 ± 0.37. For UCCUAGCAAUAUUACGCCUG, the “self-splicing fitness (ln)” value runs as follows: (30 °C) -2.87 ± 0.39; (37 °C) -2.57 ± 0.46. The matching figures for UCCUAGCAAUAUUACGCGAA: -2.24 ± 0.22 and -1.67 ± 0.17.

For UCCUAGCAAUAUUACGCGCU, the “self-splicing fitness (ln)” value (30 °C) was -2.24 ± 0.14 and the “self-splicing fitness (ln)” value (37 °C) was -2.73 ± 0.23. For UCCUAGCAAUAUUACGCUAG, the “self-splicing fitness (ln)” value (30 °C) was -3.47 ± 0.44. UCCUAGCAAUAUUACGCUAU: the “self-splicing fitness (ln)” value is -2.89 ± 0.21 (30 °C) and -2.43 ± 0.27 (37 °C). On to UCCUAGCAAUAUUACGCUUU, for which the “self-splicing fitness (ln)” value (37 °C) is -1.85 ± 0.29. On the same count and under the same terms, the figure for UCCUAGCAAUAUUACGGAAC is -2.69 ± 0.24.

UCCUAGCAAUAUUACGGACU: the “self-splicing fitness (ln)” value runs as follows: (30 °C) -3.59 ± 0.24; (37 °C) -2.39 ± 0.22.

As to UCCUAGCAAUAUUACGGCAC, the “self-splicing fitness (ln)” value (37 °C) is -2.14 ± 0.24. Turning to UCCUAGCAAUAUUACGGCUG, the “self-splicing fitness (ln)” value was -3.67 ± 0.39 (30 °C) and -1.37 ± 0.47 (37 °C). As for UCCUAGCAAUAUUACGGGCA, the “self-splicing fitness (ln)” value (30 °C) is -0.22 ± 0.085 and the “self-splicing fitness (ln)” value (37 °C) was 0.2 ± 0.097. Taken in the same sequence, the figures for UCCUAGCAAUAUUACGGGUC were -3.81 ± 0.22 and -2.71 ± 0.28. For the sequence UCCUAGCAAUAUUACGGUCC, the “self-splicing fitness (ln)” value (30 °C) is -2.63 ± 0.24. As to UCCUAGCAAUAUUACGUAUA, the “self-splicing fitness (ln)” value reads like this: (30 °C) -3.53 ± 0.28; (37 °C) -2.03 ± 0.16.

As to UCCUAGCAAUAUUACGUCGU, the “self-splicing fitness (ln)” value by setting is: (30 °C) -2.3 ± 0.13; (37 °C) -0.732 ± 0.13. Taken in the same sequence, the figures for UCCUAGCAAUAUUACGUGUC were -3.06 ± 0.34 and -2.71 ± 0.38.

For the sequence UCGAAGCAAUAUUACGACCG, the “self-splicing fitness (ln)” value is, setting by setting: (30 °C) -0.853 ± 0.12; (37 °C) -0.898 ± 0.14. UCGAAGCAAUAUUACGACGC: the “self-splicing fitness (ln)” value (30 °C) worked out at 0.247 ± 0.19 and the “self-splicing fitness (ln)” value (37 °C) was -0.514 ± 0.2. Taken in the same sequence, the figures for UCGAAGCAAUAUUACGACGU were -0.755 ± 0.1 and -0.205 ± 0.099. As to UCGAAGCAAUAUUACGAGAA, the “self-splicing fitness (ln)” value runs as follows: (30 °C) -1.94 ± 0.41; (37 °C) -1.23 ± 0.3.

As to UCGAAGCAAUAUUACGAGUA, the “self-splicing fitness (ln)” value (30 °C) is -2.08 ± 0.14 and the “self-splicing fitness (ln)” value (37 °C) is -0.398 ± 0.12. As to UCGAAGCAAUAUUACGAGUG, the “self-splicing fitness (ln)” value was -1.56 ± 0.1 (30 °C) and -1.52 ± 0.15 (37 °C). Taken in the same sequence, the figures for UCGAAGCAAUAUUACGAUCG were -1.25 ± 0.099 and -0.609 ± 0.12. In the case of UCGAAGCAAUAUUACGCAGU, the “self-splicing fitness (ln)” value is, setting by setting: (30 °C) -0.00368 ± 0.23; (37 °C) -0.973 ± 0.47. The matching figures for UCGAAGCAAUAUUACGCCAU: -3.42 ± 0.32 and -2.52 ± 0.48.

In the case of UCGAAGCAAUAUUACGCCCG, the “self-splicing fitness (ln)” value is, setting by setting: (30 °C) -1.33 ± 0.16; (37 °C) -0.864 ± 0.17. The matching figures for UCGAAGCAAUAUUACGCGUA: -1.46 ± 0.15 and -1.19 ± 0.13.

With UCGAAGCAAUAUUACGCUCU, the “self-splicing fitness (ln)” value (37 °C) was -1.36 ± 0.34. As to UCGAAGCAAUAUUACGCUUA, the “self-splicing fitness (ln)” value was -2.28 ± 0.28 (30 °C) and -3.61 ± 0.37 (37 °C). Regarding UCGAAGCAAUAUUACGCUUU, the “self-splicing fitness (ln)” value was -4.08 ± 0.3 (30 °C) and -2.94 ± 0.35 (37 °C). Taken in the same sequence, the figures for UCGAAGCAAUAUUACGGACA were -0.385 ± 0.15 and -0.235 ± 0.23.

Take UCGAAGCAAUAUUACGGAGC: the “self-splicing fitness (ln)” value (37 °C) is -1.75 ± 0.33. For the sequence UCGAAGCAAUAUUACGGAGG, the “self-splicing fitness (ln)” value (30 °C) was -2.79 ± 0.32 and the “self-splicing fitness (ln)” value (37 °C) was -1.82 ± 0.41.

As for UCGAAGCAAUAUUACGGAUA, the “self-splicing fitness (ln)” value is, setting by setting: (30 °C) -1.08 ± 0.15; (37 °C) -1.15 ± 0.19. Taken in the same sequence, the figures for UCGAAGCAAUAUUACGGGAA were -2.02 ± 0.12 and -0.804 ± 0.11.

In the case of UCGAAGCAAUAUUACGGGAU, the “self-splicing fitness (ln)” value is -3.98 ± 0.31 (30 °C) and -3.17 ± 0.32 (37 °C).

In the case of UCGAAGCAAUAUUACGUAUC, the “self-splicing fitness (ln)” value (30 °C) was -3.96 ± 0.35.

Source of the values: the supplement of paper PMC7877785.
